In PMC9352680, “A comprehensive thermodynamic model for RNA binding by the Saccharomyces cerevisiae Pumilio protein PUF4”:

Molecular target: T1, PUF4 RNA-binding domain (Saccharomyces cerevisiae, UniProt P25339 537-888)
T1 sequence: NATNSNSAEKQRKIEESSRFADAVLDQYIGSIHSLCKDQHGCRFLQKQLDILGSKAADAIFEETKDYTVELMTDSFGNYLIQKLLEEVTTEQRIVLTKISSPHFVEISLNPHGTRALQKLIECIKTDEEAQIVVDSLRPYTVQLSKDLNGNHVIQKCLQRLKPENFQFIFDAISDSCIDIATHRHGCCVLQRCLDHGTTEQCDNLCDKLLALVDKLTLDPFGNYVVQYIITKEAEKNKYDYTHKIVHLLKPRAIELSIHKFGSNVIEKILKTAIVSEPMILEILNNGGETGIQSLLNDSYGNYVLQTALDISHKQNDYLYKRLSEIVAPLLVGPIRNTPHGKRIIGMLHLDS
Experiment: Mg; RNA-MaP; 20 mM Na-HEPES pH 7.4, 30 mM KOAc, 0.75 mM MgCl2, 0.1% Tween-20, 5% glycerol, 0.1 mg/mL BSA, 2 mM DTT; 25 C; 0.0125-409.6 nM protein
Settings: tags: N-His6-TEV cleaved; C-SNAP kept, Cy3B-labelled; label: tethered on chip by stalled RNA polymerase

| Binder | Kd |
| --- | --- |
| UCUCUUUGUAUAUCUCUUAUCUCUU (ssRNA) [Ie_S1_P4E.1_K4.1_C4.1_H4.1_A4.1_[+6TCTC]_F4.1_T4.1] | 24.4 nM |
| UCUCUUUGUAUUCUAUUAUCUCUU (ssRNA) [Ie_S1_P5E.1_K5.1_C5.1_H5.1_A5.1_[+5TC]_F5.1_T5.1] | 3.27 nM |
| UCUCUUUGUAUCCUCUAUUAUCUCUU (ssRNA) [Ie_S1_P5E.1_K5.1_C5.1_H5.1_A5.1_[+5CCTC]_F5.1_T5.1] | 23.9 nM |
| UCUCUUUGUACUCUUAUUAUCUCUU (ssRNA) [Ie_S1_P5E.1_K5.1_C5.1_H5.1_[+4CTC]_A5.1_F5.1_T5.1] | 6.55 nM |
| UCUCUUUGUAUUUUAUUAUCUCUU (ssRNA) [Ie_S1_P5E.1_K5.1_C5.1_H5.1_[+4TT]_A5.1_F5.1_T5.1] | 2.74 nM |
| UCUCUUUGUAUCUCUAUUAUCUCUU (ssRNA) [Ie_S1_P5E.1_K5.1_C5.1_H5.1_A5.1_[+5CTC]_F5.1_T5.1] | 13.2 nM |
| UCUCUUUGUAUCUAUUAUCUCUU (ssRNA) [Ie_S1_P5E.1_K5.1_C5.1_H5.1_A5.1_[+5C]_F5.1_T5.1] | 13.7 nM |
| UCUCUUUGUAUAUUUUAUCUCUU (ssRNA) [Ie_S1_P4E.1_K4.1_C4.1_H4.1_A4.1_[+7TT]_F4.1_T4.1] | 4.6 nM |
| UCUCUUUGUAUACUCUUAUCUCUU (ssRNA) [Ie_S1_P4E.1_K4.1_C4.1_H4.1_A4.1_[+6CTC]_F4.1_T4.1] | 8.94 nM |
| UCUCUUUGUAUAUUCUCUAUCUCUU (ssRNA) [Ie_S1_P4E.1_K4.1_C4.1_H4.1_A4.1_F4.1_[+8CTCT]_T4.1] | 7.11 nM |
| UCUCUUUGUAUCUCAUUAUCUCUU (ssRNA) [Ie_S1_P4E.1_K4.1_C4.1_H4.1_A4.1_[+5CTC]_F4.1_T4.1] | 37.1 nM |
| UCUCUUUGUACCUCUUAUUAUCUCUU (ssRNA) [Ie_S1_P4E.1_K4.1_C4.1_H4.1_[+4CCTCT]_A4.1_F4.1_T4.1] | 27.7 nM |
| UCUCUUUGUAUCCCAUUAUCUCUU (ssRNA) [Ie_S1_P4E.1_K4.1_C4.1_H4.1_A4.1_[+5CCC]_F4.1_T4.1] | 76.1 nM |
| UCUCUUUGUAUACCUCUUAUCUCUU (ssRNA) [Ie_S1_P4E.1_K4.1_C4.1_H4.1_A4.1_[+6CCTC]_F4.1_T4.1] | 41.5 nM |
| UCUCUUUGUAUUUCCUAUUAUCUCUU (ssRNA) [Ie_S1_P5E.1_K5.1_C5.1_H5.1_A5.1_[+5TTCC]_F5.1_T5.1] | 15.9 nM |
| UCUCUUUGUAUAUCCUUAUCUCUU (ssRNA) [Ie_S1_P4E.1_K4.1_C4.1_H4.1_A4.1_[+7CCT]_F4.1_T4.1] | 16.4 nM |
| UCUCUUUGUACCUUAUUAUCUCUU (ssRNA) [Ie_S1_P4E.1_K4.1_C4.1_H4.1_[+4CCT]_A4.1_F4.1_T4.1] | 4.83 nM |
| UCUCUUUGUAUACCUUAUCUCUU (ssRNA) [Ie_S1_P4E.1_K4.1_C4.1_H4.1_A4.1_[+6CC]_F4.1_T4.1] | 8.34 nM |
| Ic_S2_P3E.1_K3.1_C3.1_H3.1_A3.1_F3.1_[T7C]_[A8G]_T3.1 (ssRNA) RNA: UUUGAUUAAUAUGAUAUCGUUCUUUCUUGUAUACGUUCUUUCUCGAUAUCAUAUUAAUCUUU | 35.1 nM |
| Ic_S2_P3E.1_K3.1_C3.1_H3.1_A3.1_F3.1_[T7A]_[A8C]_T3.1 (ssRNA) RNA: UUUGAUUAAUAUGAUAUCGUUCUUUCUUGUAUAACUUCUUUCUCGAUAUCAUAUUAAUCUUU | 27.7 nM |

| Binder | Kd |
| --- | --- |
| Ib_S2_P3E.1_K3.1_C3.1_H3.1_A3.1_F3.1_[T7C]_[A8T]_T3.1 (ssRNA) RNA: UUUGAUUAAUAUGAUAUCGUUCUUUCUUGUAUACUUUCUUUCUCGAUAUCAUAUUAAUCUUU | 3.86 nM |
| Ic_S2_P3E.1_K3.1_C3.1_H3.1_A3.1_F3.1_[T7A]_[A8T]_T3.1 (ssRNA) RNA: UUUGAUUAAUAUGAUAUCGUUCUUUCUUGUAUAAUUUCUUUCUCGAUAUCAUAUUAAUCUUU | 6.77 nM |
| Ib_S2_P3E.1_K3.1_C3.1_H3.1_[T1C]_A3.1_F3.1_[T7C]_T3.1 (ssRNA) RNA: UUUGAUUAAUAUGAUAUCGUUCUUUCUCGUAUACAUUCUUUCUCGAUAUCAUAUUAAUCUUU | 649 nM |
| Ia_S2_P3E.1_K3.1_C3.1_H3.1_[T1C]_A3.1_F3.1_T3.1 (ssRNA) RNA: UUUGAUUAAUAUGAUAUCGUUCUUUCUCGUAUAUAUUCUUUCUCGAUAUCAUAUUAAUCUUU | 136 nM |
| Ic_S2_P3E.1_K3.1_C3.1_H3.1_A3.1_F3.1_[T7C]_[A8C]_T3.1 (ssRNA) RNA: UUUGAUUAAUAUGAUAUCGUUCUUUCUUGUAUACCUUCUUUCUCGAUAUCAUAUUAAUCUUU | 21.1 nM |
| UCUCUUUGUAUAUUCCUAUCUCUU (ssRNA) [Ie_S1_P4E.1_K4.1_C4.1_H4.1_A4.1_F4.1_[+8CCT]_T4.1] | 8.2 nM |
| UCUCUUUGUAUACCCUUAUCUCUU (ssRNA) [Ie_S1_P4E.1_K4.1_C4.1_H4.1_A4.1_[+6CCC]_F4.1_T4.1] | 35.3 nM |
| UCUCUUUGUAUAUCUUUAUCUCUU (ssRNA) [Ie_S1_P4E.1_K4.1_C4.1_H4.1_A4.1_[+6TCT]_F4.1_T4.1] | 13.9 nM |
| UCUCUUUGUAUCUCUUAUUAUCUCUU (ssRNA) [Ie_S1_P5E.1_K5.1_C5.1_H5.1_[+4TCTC]_A5.1_F5.1_T5.1] | 21.8 nM |
| UCUCUUUGUACCCUUUAUUAUCUCUU (ssRNA) [Ie_S1_P5E.1_K5.1_C5.1_H5.1_[+4CCCT]_A5.1_F5.1_T5.1] | 17.8 nM |
| UCUCUUUGUACCCUUAUUAUCUCUU (ssRNA) [Ie_S1_P4E.1_K4.1_C4.1_H4.1_[+4CCCT]_A4.1_F4.1_T4.1] | 6.31 nM |
| UCUCUUUGUAUCCUCAUUAUCUCUU (ssRNA) [Ie_S1_P4E.1_K4.1_C4.1_H4.1_A4.1_[+5CCTC]_F4.1_T4.1] | 38.3 nM |
| UCUCUUUGUAUAUCUCUUUAUCUCUU (ssRNA) [Ie_S1_P4E.1_K4.1_C4.1_H4.1_A4.1_[+6TCTCT]_F4.1_T4.1] | 14.7 nM |
| UCUCUUUGUAUUCCUAUUAUCUCUU (ssRNA) [Ie_S1_P5E.1_K5.1_C5.1_H5.1_A5.1_[+5TCC]_F5.1_T5.1] | 10.3 nM |
| UCUCUUUGUAUUCUCAUUAUCUCUU (ssRNA) [Ie_S1_P5E.1_K5.1_C5.1_H5.1_A5.1_[+6CTC]_F5.1_T5.1] | 33.8 nM |
| UCUCUUUGUAUAUCCUAUCUCUU (ssRNA) [Ie_S1_P4E.1_K4.1_C4.1_H4.1_A4.1_[+7CC]_F4.1_T4.1] | 14.2 nM |
| UCUCUUUGUAUAUUCUAUCUCUU (ssRNA) [Ie_S1_P4E.1_K4.1_C4.1_H4.1_A4.1_F4.1_[+8CT]_T4.1] | 5.4 nM |
| UCUCUUUGUAUAUUUCUAUCUCUU (ssRNA) [Ie_S1_P4E.1_K4.1_C4.1_H4.1_A4.1_[+7TTC]_F4.1_T4.1] | 5.38 nM |
| UCUCUUUGUAUUCUCUAUUAUCUCUU (ssRNA) [Ie_S1_P5E.1_K5.1_C5.1_H5.1_A5.1_[+5TCTC]_F5.1_T5.1] | 22.9 nM |
| UCUCUUUGUAUACCCUUUAUCUCUU (ssRNA) [Ie_S1_P4E.1_K4.1_C4.1_H4.1_A4.1_[+6CCCT]_F4.1_T4.1] | 48.6 nM |

| Binder | Kd |
| --- | --- |
| UCUCUUUGUACUUUAUUAUCUCUU (ssRNA) [Ie_S1_P5E.1_K5.1_C5.1_H5.1_[+4CT]_A5.1_F5.1_T5.1] | 2.73 nM |
| UCUCUUUGUAUCCCUAUUAUCUCUU (ssRNA) [Ie_S1_P5E.1_K5.1_C5.1_H5.1_A5.1_[+5CCC]_F5.1_T5.1] | 20 nM |
| UCUCUUUGUAUUUAUUAUCUCUU (ssRNA) [Ie_S1_P4E.1_K4.1_C4.1_H4.1_[+4TT]_A4.1_F4.1_T4.1] | 16.2 nM |
| UCUCUUUGUACCCUAUUAUCUCUU (ssRNA) [Ie_S1_P4E.1_K4.1_C4.1_H4.1_[+4CCC]_A4.1_F4.1_T4.1] | 5.85 nM |
| UCUCUUUGUAUUCCAUUAUCUCUU (ssRNA) [Ie_S1_P4E.1_K4.1_C4.1_H4.1_A4.1_[+5TCC]_F4.1_T4.1] | 62 nM |
| UCUCUUUGUAUUUCCAUUAUCUCUU (ssRNA) [Ie_S1_P4E.1_K4.1_C4.1_H4.1_A4.1_[+5TTCC]_F4.1_T4.1] | 96.6 nM |
| UCUCUUUGUAUAUCUUAUCUCUU (ssRNA) [Ie_S1_P4E.1_K4.1_C4.1_H4.1_A4.1_[+7CT]_F4.1_T4.1] | 6.9 nM |
| UCUCUUUGUACCUCUAUUAUCUCUU (ssRNA) [Ie_S1_P4E.1_K4.1_C4.1_H4.1_[+4CCTC]_A4.1_F4.1_T4.1] | 12.7 nM |
| UCUCUUUGUAUCCCUUAUUAUCUCUU (ssRNA) [Ie_S1_P4E.1_K4.1_C4.1_H4.1_A4.1_[+5CCCTT]_F4.1_T4.1] | 41 nM |
| UCUCUUUGUAUCUUAUUAUCUCUU (ssRNA) [Ie_S1_P4E.1_K4.1_C4.1_H4.1_[+4TCT]_A4.1_F4.1_T4.1] | 4 nM |
| UCUCUUUGUAUUCCUUAUUAUCUCUU (ssRNA) [Ie_S1_P4E.1_K4.1_C4.1_H4.1_[+4TTCCT]_A4.1_F4.1_T4.1] | 19 nM |
| UCUCUUUGUAUAUCCCUAUCUCUU (ssRNA) [Ie_S1_P4E.1_K4.1_C4.1_H4.1_A4.1_[+7CCC]_F4.1_T4.1] | 31.9 nM |
| UCUCUUUGUAUACUCUUUAUCUCUU (ssRNA) [Ie_S1_P4E.1_K4.1_C4.1_H4.1_A4.1_[+6CTCT]_F4.1_T4.1] | 12.6 nM |
| UCUCUUUGUAUACUUUUAUCUCUU (ssRNA) [Ie_S1_P4E.1_K4.1_C4.1_H4.1_A4.1_[+6CTT]_F4.1_T4.1] | 6.8 nM |
| UCUCUUUGUAUACUCUCUUAUCUCUU (ssRNA) [Ie_S1_P4E.1_K4.1_C4.1_H4.1_A4.1_[+6CTCTC]_F4.1_T4.1] | 10.9 nM |
| UCUCUUUGUAUAUUUUUAUCUCUU (ssRNA) [Ie_S1_P4E.1_K4.1_C4.1_H4.1_A4.1_[+7TTT]_F4.1_T4.1] | 5.93 nM |
| UCUCUUUGUAUAUUCUUAUCUCUU (ssRNA) [Ie_S1_P4E.1_K4.1_C4.1_H4.1_A4.1_[+6TTC]_F4.1_T4.1] | 6.67 nM |
| UCUCUUUGUAUCCUAUUAUCUCUU (ssRNA) [Ie_S1_P4E.1_K4.1_C4.1_H4.1_[+4TCC]_A4.1_F4.1_T4.1] | 5.92 nM |
| UCUCUUUGUAUUUCAUUAUCUCUU (ssRNA) [Ie_S1_P4E.1_K4.1_C4.1_H4.1_A4.1_[+5TTC]_F4.1_T4.1] | 39.7 nM |
| UCUCUUUGUAUACCUCUUUAUCUCUU (ssRNA) [Ie_S1_P4E.1_K4.1_C4.1_H4.1_A4.1_[+6CCTCT]_F4.1_T4.1] | 27.5 nM |
